Experimental data taken from patent publication US20250027939A1.

Target: S protein (UniProt P61823)
Assay: affinity column capture; EGFP fluorescence of column fractions as percent of input

Sequence of UniProt P61823 (P61823 47-150): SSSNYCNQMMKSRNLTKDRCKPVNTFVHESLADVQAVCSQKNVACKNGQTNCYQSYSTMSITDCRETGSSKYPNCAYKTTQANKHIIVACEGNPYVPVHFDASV

percent of input target protein bound: 50%
Substance: S tag-bearing target protein (EGFP)
